Data as given in patent US8282967B2, “Nitric oxide-releasing particles for nitric oxide therapeutics and biomedical applications” (The University of North Carolina at Chapel Hill, priority 2005, dated 2012).

Columns and labels:
[1] = tested on: A2780 ovarian epithelial tumor cells; assay: MTT cell viability assay, A2780 cells; type: cell-based, human; conditions: small molecule NO donor; cell line not named in the sentence (b369 names OVCAR-3 for PYRRO/NO)
Protocol: To evaluate the tumoricidal potential of NO donor silica nanoparticles, the cytotoxicity of control and NO-releasing silica particles on immortalized normal (T29) and cancer (A2780 and OVCAR-3) human ovarian epithelial cells was tested. MTT cell viability assays were performed as described below. The 3-(4,5-dimethylthiazol-2-yl-)-2,5-diphenyltetrazoliumbromide (MTT) proliferation assay was employed to determine the relative sensitivities of OVCAR-3 cells to PYRRO/NO. Cells were seeded in 6 replicates at 1−5×10^3 cells/well in 96-well microtiter plates, incubated overnight, and exposed to concentrations of NO donor and control pyrrolidine solutions for 48 h. The NO-releasing medium was then removed and replaced by MTT solution, upon which the cells were incubated for an additional 4 h at 37° C. Following removal of the MTT, DMSO was added, and the absorption of the solution was measured at 560 nm using a microplate reader.
To investigate whether nanoparticle size affects cytotoxicity, two silica nanoparticles (75 mol % MAP3, balance TEOS) of different particle size (80 and 350 nm in diameter, hereafter referred to as s-MAP3 and L-MAP3, respectively) were synthesized. […] Cell viability was determined by incubating T29 and A2780 with non NO-releasing control MAP3 particle (80 nm), s-MAP3, or L-MAP3 (0.4 mg/mL) for 48 h. […]

[2] = Nitric oxide release from diazeniumdiolated materials; type: physicochemical
Protocol: Nitric oxide release of the presently disclosed NO-releasing particles was measured according to the following general procedure. Referring now to FIG. 12, a predetermined volume of phosphate buffer solution (PBS) (pH 7.4, 37° C.) was disposed in a receptacle, e.g., a round-bottomed flask. The receptacle was sealed, leaving an inlet for nitrogen gas and an outlet for a mixture of nitrogen and nitric oxide. The outlet was in fluid communication with a chemiluminescence nitric oxide analyzer. An aliquot of a solution containing a diazeniumdiolated species was injected into the PBS buffer. The chemiluminescence nitric oxide analyzer measured the amount of NO that reacted with ozone (O3) to form excited NO2*, which emitted electromagnetic radiation (hv) as shown in Scheme 2. […] NO2*→NO2+hv Scheme 2. Measurement of NO by chemiluminescence.
NO release from a variety of NO-releasing materials was measured according to the procedure outlined in Example 3. The diazeniumdiolated fumed silica particles were prepared as described in Example 9, below, grafting the fumed silica surface to N-(6-aminohexyl)-3-aminopropyltrimethoxysilane, followed by diazeniumdiolation of the secondary amine with NO gas.

| Compound | Cytotoxic NO concentration [1] [mM NO] | NO Released [2] [mmol NO/g] | tv2 [2] |
| --- | --- | --- | --- |
| [Na+].[O-]N=[N+]([O-])N1CCCC1 [PYRRO/NO] | 4.4 | – | – |
| Proteins (Bovine serum albumin (BSA): diazeniumdiolated bovine serum albumin | – | 0.54 | 7.2E4. min |
